# According to patent US20250313627A1 (FUSE BIOTHERAPEUTICS, published 2025):
# Target: T1, human ROR1 (Receptor Tyrosine Kinase-Like Orphan Receptor 1) on the cell surface (human, UniProt Q01973 30-937)
# T1 construct: whole, on cells; engineered into B16-F10 (high density) and LS174T (low density) cells; also called B16-F10-ROR1-H; LS174T-ROR1-L
# Experiment: flow cytometry, B16-F10 cells expressing human ROR1 (high density)
# Protocol: (§1) As shown in the tables below, mouse B16-F10 melanoma (Tables 9A-9F) or LS174T human colorectal adenocarcinoma (Tables 9G-9H) cells genetically engineered to express human ROR1 at high and low densities, respectively, were stained for flow cytometric analysis with 100 nM of humanized variants of the ROR1 specific VHHs, 5A1 or 2A11 in either a VHH-Fc format or the Ac13 format shown in FIG. 1. Cells were analyzed on a flow cytometer after the primary test article was fluorescently tagged with a goat anti human IgG-Fc specific PE secondary antibody. The positive control used was PE conjugated anti-human ROR1 clone 2A2. Negative controls included a PE labeled mouse IgG Ab, the secondary antibody only, the combination of a Hen Egg Lysozyme (HEL) specific antibody plus goat anti human IgG-Fc specific PE and Fluorescence Minus One (FMO). Other controls included the non-humanized version of 5A1-Fc (FUSE179), 2A11-Fc (FUSE112) and 5A1-Ac13 (FUSE488). Humanized variants were generated using computational design (FUSE489, FUSE497-498, FUSE563, FUSE569-570, and BI-HU9-VHH11-33), a yeast display library in which mutations were inserted into the Vernier zone residues of human framework indicated in GenBank accession number M99660 (FUSE524-525, FUSE589, FUSE597-598, FUSE537, FUSE661-662, BI-HU9-HK and BI-HU9-HK-1), and a second yeast display library in which mutations were inserted into the Vernier zone residues of human framework indicated in GenBank accession number AWH66715 and amino acid position 103 within CDR3 (FUSE559, FUSE590-596, BI-HU9-VH9-1, FUSE654-655 and FUSE661-662. Affinity matured variants of FUSE559 were also generated using computational design (F22158101-21; Table 9H).
# T1 sequence (Q01973 30-937): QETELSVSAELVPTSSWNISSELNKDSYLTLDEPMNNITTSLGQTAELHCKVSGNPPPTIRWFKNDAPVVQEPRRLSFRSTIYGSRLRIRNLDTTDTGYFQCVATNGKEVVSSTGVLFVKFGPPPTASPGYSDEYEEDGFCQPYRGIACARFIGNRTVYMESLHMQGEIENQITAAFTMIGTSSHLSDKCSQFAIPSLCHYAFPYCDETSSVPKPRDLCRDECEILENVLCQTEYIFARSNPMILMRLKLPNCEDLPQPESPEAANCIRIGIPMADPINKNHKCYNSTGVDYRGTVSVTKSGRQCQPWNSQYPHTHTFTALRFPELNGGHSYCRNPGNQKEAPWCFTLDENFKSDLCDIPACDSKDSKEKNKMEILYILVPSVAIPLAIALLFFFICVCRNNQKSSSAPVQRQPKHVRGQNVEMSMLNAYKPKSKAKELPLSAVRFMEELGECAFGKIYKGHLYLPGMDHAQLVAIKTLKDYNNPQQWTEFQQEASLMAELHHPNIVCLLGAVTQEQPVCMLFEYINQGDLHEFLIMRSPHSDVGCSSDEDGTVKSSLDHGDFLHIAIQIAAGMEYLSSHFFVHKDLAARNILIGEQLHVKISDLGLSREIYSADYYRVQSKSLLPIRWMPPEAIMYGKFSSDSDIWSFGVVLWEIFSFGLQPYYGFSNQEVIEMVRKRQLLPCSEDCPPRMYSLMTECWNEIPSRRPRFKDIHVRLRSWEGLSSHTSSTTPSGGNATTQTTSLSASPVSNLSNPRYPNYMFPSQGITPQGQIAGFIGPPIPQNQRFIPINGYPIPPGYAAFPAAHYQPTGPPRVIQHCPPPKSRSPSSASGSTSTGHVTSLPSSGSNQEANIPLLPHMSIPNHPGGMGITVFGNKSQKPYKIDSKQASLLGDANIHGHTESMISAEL
row,Binder,MFI
1,"FUSE-594 (h5A1-FA9-HK6_Fc) (Fc fusion, VHH-Fc format; not shown: Fc of the VHH-Fc format) EVQLLESGGGLVPRGGSLRLSCTASGYTNRLKCMGWFRQAPGKEREEIASISTGTGNTYYADSVKGRFTISQDKSRNTLYLQMNSLKAEDTAVYYCAADVRPRGTTCHYNSRGQGTQVTVSS",7910
2,"FUSE-591 (h5A1-FA9-HK3_Fc) (Fc fusion, VHH-Fc format; not shown: Fc of the VHH-Fc format) EVQLLESGGGLVPRGGSLRLSCAASGYTNRLKCMGWFRQAPGKEREEIATISTGTGNTYYADSVKGRFTISQDKSRNTLYLQMNSLKAEDTAVYYCAADVRPKGTTCHYNKRGQGTQVTVSS",7770
3,"FUSE-596 (h5A1-FA9-HK8 Fc) (Fc fusion, VHH-Fc format; not shown: Fc of the VHH-Fc format) EVQLLESGGGLVPRGGSLRLSCTASGYTNRLKCMGWFRQAPGKEREEIASISTGTGNTYYSDSVKGRFTISRDKSRNTLYLKLKSLRAEDTAVYYCAADVRPDGTTCHYNSRGQGTQVTVSS",6260
4,"FUSE-593 (h5A1-FA9-HK5_Fc) (Fc fusion, VHH-Fc format; not shown: Fc of the VHH-Fc format) EVQLLESGGGLVQRGGSLRLSCAASGYTNRLKCMGWFRQAPGKEREEIASISTGTGNTYYSDSVKGRFTISRDKSRNTLYLQLNSLKAEDTAVYYCAADVRPKGTTCHYNSRGQGTQVTVSS",7520
5,"FUSE-590 (h5A1-FA9-HK2_Fc) (Fc fusion, VHH-Fc format; not shown: Fc of the VHH-Fc format) EVQLLESGGGLVQRGGSLRLSCTASGYTNRLKCMGWFRQAPGKEREEIASISTGTGNTYYSDSVKGRFTISRDKSRNTLYLQMKSLRAEDTAVYYCAADVRPRGTTCHYNSRGQGTQVTVSS",7330
6,"FUSE-595 (h5A1-FA9-HK7_Fc) (Fc fusion, VHH-Fc format; not shown: Fc of the VHH-Fc format) EVQLLESGGGLVQRGGSLRLSCTASGYTNRLKCMGWFRQAPGKEREEIATISTGTGNTYYADSVKGRFTISRDKSRNTLYLQMKSLKAEDTAVYYCAADVRPKGTTCHYNSRGQGTQVTVSS",7180
7,"FUSE-592 (h5A1-FA9-HK4_Fc) (Fc fusion, VHH-Fc format; not shown: Fc of the VHH-Fc format) EVQLLESGGGLVPRGGSLRLSCAASGYTNRLKCMGWFRQAPGKEREEVASISTGTGNTYYADSVKGRFTISQDKSRNTLYLQLNSLRAEDTAVYYCAADVRPRGTTCHYNSRGQGTQVTVSS",7540
8,"FUSE-589 (h2A11-HK5 Fc) (Fc fusion, VHH-Fc format; not shown: Fc of the VHH-Fc format) EVQLLESGGGLVQPGGSLRLSCAASGSTYSANCMGWFRQAPGKERELASMSIRSGRTYYADSVKGRFTISQDGSKNTLYLQMNSLKAEDTAVYYCAAAYGGSRCVYNYRGQGTLVTVSS",6950

# Target: T1, human ROR1 (Receptor Tyrosine …)
# Experiment: flow cytometry, LS174T cells expressing human ROR1 (low density)
# Protocol: as §1
row,Binder,MFI
1,"F22158101 (h5A1-BI-001 Fc) (Fc fusion, VHH-Fc format; not shown: Fc of the VHH-Fc format) EVQLLESGGGLVQPGGSLRLSCAASGYTNRIKCMGWFRQAPGKEREEVASISTGTGNTYYADSVKGRFTISQDKSKNTLYLQMNSLKAEDTAVYYCAADVRPDGFTCHYNSRGQGTLVTVSS",19700
2,"F22158108 (h5A1-BI-008 Fc) (Fc fusion, VHH-Fc format; not shown: Fc of the VHH-Fc format) EVQLLESGGGLVQPGGSLRLSCAASGYTNRIKCMGWFRQAPGKEREEVASISTGTGNAYYADSVKGRFTISQDKSKNTLYLQMNSLKAEDTAVYYCAADVRPDGRTCHYNSRGQGTLVTVSS",25100
3,"F221581012 (h5A1-BI-012 Fc) (Fc fusion, VHH-Fc format; also called F22158112; not shown: Fc of the VHH-Fc format) EVQLLESGGGLVQPGGSLRLSCAASGYTNRLKCMGWFRQAPGKEREEVASISTGTGNTYYADSVKGRFTISQDKSKNTLYLQMNSLKAEDTAVYYCAADVRPFGRTCHYNSRGQGTLVTVSS",14200
4,"F22158105 (h5A1-BI-005 Fc) (Fc fusion, VHH-Fc format; not shown: Fc of the VHH-Fc format) EVQLLESGGGLVQPGGSLRLSCAASGYTNRLKCMGWFRQAPGKEREEVASISTGTGNTYYADSVKGRFTISQDKSKNTLYLQMNSLKAEDTAVYYCAADVRPDGFTCHYNKRGQGTLVTVSS",22300
5,"F221581021 (h5A1-BI-021 Fc) (Fc fusion, VHH-Fc format; also called F22158121; not shown: Fc of the VHH-Fc format) EVQLLESGGGLVQPGGSLRLSCAASGYTNRIKCMGWFRQAPGKEREEVASISTGTGNAYYADSVKGRFTISQDKSKNTLYLQMNSLKAEDTAVYYCAADVRPHGTTCHYNKRGQGTLVTVSS",35800
6,"F221581014 (h5A1-BI-014 Fc) (Fc fusion, VHH-Fc format; also called F22158114; not shown: Fc of the VHH-Fc format) EVQLLESGGGLVQPGGSLRLSCAASGYTNRIKCMGWFRQAPGKEREEVASISTGTGNTYYADSVKGRFTISQDKSKNTLYLQMNSLKAEDTAVYYCAADVRPFGRTCHYNSRGQGTLVTVSS",28700
7,"F22158109 (h5A1-BI-009 Fc) (Fc fusion, VHH-Fc format; not shown: Fc of the VHH-Fc format) EVQLLESGGGLVQPGGSLRLSCAASGYTNRIKCMGWFRQAPGKEREEVASISTGTGNSYYADSVKGRFTISQDKSKNTLYLQMNSLKAEDTAVYYCAADVRPDGRTCHYNKRGQGTLVTVSS",35000
8,"F22158107 (h5A1-BI-007 Fc) (Fc fusion, VHH-Fc format; not shown: Fc of the VHH-Fc format) EVQLLESGGGLVQPGGSLRLSCAASGYTNRLKCMGWFRQAPGKEREEVASISTGTGNAYYADSVKGRFTISQDKSKNTLYLQMNSLKAEDTAVYYCAADVRPDGRTCHYNSRGQGTLVTVSS",11500
9,"F221581010 (h5A1-BI-010 Fc) (Fc fusion, VHH-Fc format; also called F22158110; not shown: Fc of the VHH-Fc format) EVQLLESGGGLVQPGGSLRLSCAASGYTNRLKCMGWFRQAPGKEREEVASISTGTGNTYYADSVKGRFTISQDKSKNTLYLQMNSLKAEDTAVYYCAADVRPDGRTCHYNKRGQGTLVTVSS",18700
10,"F22158104 (h5A1-BI-004 Fc) (Fc fusion, VHH-Fc format; not shown: Fc of the VHH-Fc format) EVQLLESGGGLVQPGGSLRLSCAASGYTNRIKCMGWFRQAPGKEREEVASISTGTGNAYYADSVKGRFTISQDKSKNTLYLQMNSLKAEDTAVYYCAADVRPDGTTCHYNKRGQGTLVTVSS",28900
11,"F22158103 (h5A1-BI-003 Fc) (Fc fusion, VHH-Fc format; not shown: Fc of the VHH-Fc format) EVQLLESGGGLVQPGGSLRLSCAASGYTNRLKCMGWFRQAPGKEREEVASISTGTGNAYYADSVKGRFTISQDKSKNTLYLQMNSLKAEDTAVYYCAADVRPDGTTCHYNKRGQGTLVTVSS",15800
12,"F221581018 (h5A1-BI-018 Fc) (Fc fusion, VHH-Fc format; also called F22158118; not shown: Fc of the VHH-Fc format) EVQLLESGGGLVQPGGSLRLSCAASGYTNRLKCMGWFRQAPGKEREEVASISTGTGNAYYADSVKGRFTISQDKSKNTLYLQMNSLKAEDTAVYYCAADVRPHGRTCHYNSRGQGTLVTVSS",17500
13,"F221581011 (h5A1-BI-011 Fc) (Fc fusion, VHH-Fc format; also called F22158111; not shown: Fc of the VHH-Fc format) EVQLLESGGGLVQPGGSLRLSCAASGYTNRIKCMGWFRQAPGKEREEVASISTGTGNTYYADSVKGRFTISQDKSKNTLYLQMNSLKAEDTAVYYCAADVRPFGTTCHYNSRGQGTLVTVSS",19400
14,"F221581016 (h5A1-BI-016 Fc) (Fc fusion, VHH-Fc format; also called F22158116; not shown: Fc of the VHH-Fc format) EVQLLESGGGLVQPGGSLRLSCAASGYTNRLKCMGWFRQAPGKEREEVASISTGTGNAYYADSVKGRFTISQDKSKNTLYLQMNSLKAEDTAVYYCAADVRPHGTTCHYNSRGQGTLVTVSS",15000
15,"F221581019 (h5A1-BI-019 Fc) (Fc fusion, VHH-Fc format; also called F22158119; not shown: Fc of the VHH-Fc format) EVQLLESGGGLVQPGGSLRLSCAASGYTNRIKCMGWFRQAPGKEREEVASISTGTGNAYYADSVKGRFTISQDKSKNTLYLQMNSLKAEDTAVYYCAADVRPHGRTCHYNSRGQGTLVTVSS",33800
16,"F22158106 (h5A1-BI-006 Fc) (Fc fusion, VHH-Fc format; not shown: Fc of the VHH-Fc format) EVQLLESGGGLVQPGGSLRLSCAASGYTNRIKCMGWFRQAPGKEREEVASISTGTGNTYYADSVKGRFTISQDKSKNTLYLQMNSLKAEDTAVYYCAADVRPDGRTCHYNSRGQGTLVTVSS",17400
17,"F221581013 (h5A1-BI-013 Fc) (Fc fusion, VHH-Fc format; also called F22158113; not shown: Fc of the VHH-Fc format) EVQLLESGGGLVQPGGSLRLSCAASGYTNRLKCMGWFRQAPGKEREEVASISTGTGNTYYADSVKGRFTISQDKSKNTLYLQMNSLKAEDTAVYYCAADVRPFGTTCHYNKRGQGTLVTVSS",23800
18,"F221581020 (h5A1-BI-020 Fc) (Fc fusion, VHH-Fc format; also called F22158120; not shown: Fc of the VHH-Fc format) EVQLLESGGGLVQPGGSLRLSCAASGYTNRLKCMGWFRQAPGKEREEVASISTGTGNAYYADSVKGRFTISQDKSKNTLYLQMNSLKAEDTAVYYCAADVRPHGTTCHYNKRGQGTLVTVSS",26500
19,"F221581017 (h5A1-BI-017 Fc) (Fc fusion, VHH-Fc format; also called F22158117; not shown: Fc of the VHH-Fc format) EVQLLESGGGLVQPGGSLRLSCAASGYTNRIKCMGWFRQAPGKEREEVASISTGTGNAYYADSVKGRFTISQDKSKNTLYLQMNSLKAEDTAVYYCAADVRPHGTTCHYNSRGQGTLVTVSS",28600
20,"F221581015 (h5A1-BI-015 Fc) (Fc fusion, VHH-Fc format; also called F22158115; not shown: Fc of the VHH-Fc format) EVQLLESGGGLVQPGGSLRLSCAASGYTNRIKCMGWFRQAPGKEREEVASISTGTGNTYYADSVKGRFTISQDKSKNTLYLQMNSLKAEDTAVYYCAADVRPFGTTCHYNKRGQGTLVTVSS",29300
21,"F22158102 (h5A1-BI-002 Fc) (Fc fusion, VHH-Fc format; not shown: Fc of the VHH-Fc format) EVQLLESGGGLVQPGGSLRLSCAASGYTNRIKCMGWFRQAPGKEREEVASISTGTGNTYYADSVKGRFTISQDKSKNTLYLQMNSLKAEDTAVYYCAADVRPDGTTCHYNKRGQGTLVTVSS",20500
